# IntAct's records for PubMed 19197237
# B1: Peroxisomal biogenesis factor 19 (Homo sapiens), P40855 (parent)
# chain: MAAAEEGCSVGAEADRELEELLESALDDFDKAKPSPAPPSTTTAPDASGPQKRSPGDTAKDALFASQEKFFQELFDSELASQATAEFEKAMKELAEEEPHLVEQFQKLSEAAGRVGSDMTSQQEFTSCLKETLSGLAKNATDLQNSSMSEEELTKAMEGLGMDEGDGEGNILPIMQSIMQNLLSKDVLYPSLKEITEKYPEWLQSHRESLPPEQFEKYQEQHSVMCKICEQFEAETPTDSETTQKARFEMVLDLMQQLQDLGHPPKELAGEMPPGLNFDLDALNLSGPPGASGEQCLIM
# B2: Peroxisomal membrane protein PEX14 (Homo sapiens), O75381 (parent)
# chain: MASSEQAEQPSQPSSTPGSENVLPREPLIATAVKFLQNSRVRQSPLATRRAFLKKKGLTDEEIDMAFQQSGTAADEPSSLGPATQVVPVQPPHLISQPYSPAGSRWRDYGALAIIMAGIAFGFHQLYKKYLLPLILGGREDRKQLERMEAGLSELSGSVAQTVTQLQTTLASVQELLIQQQQKIQELAHELAAAKATTSTNWILESQNINELKSEINSLKGLLLNRRQFPPSPSAPKIPSWQIPVKSPSPSSPAAVNHHSSSDISPVSNESTSSSPGKEGHSPEGSTVTYHLLGPQEEGEGVVDVKGQVRMEVQGEEEKREDKEDEEDEEDDDVSHVDEEDCLGVQREDRRGGDGQINEQVEKLRRPEGASNESERD
# partner: B1 chain
# Variants of: B1
# Conditions: with pex14_human PEX14, O75381
row,Variant,effect of a mutation on the interaction
1,MAAAEEGCSVGAEADRELEELLESALDDFDKAKPSPAPPSTTTAPDASGPQKRSPGDTAKDALFASQEKAFQELFDSELASQATAEFEKAMKELAEEEPHLVEQFQKLSEAAGRVGSDMTSQQEFTSCLKETLSGLAKNATDLQNSSMSEEELTKAMEGLGMDEGDGEGNILPIMQSIMQNLLSKDVLYPSLKEITEKYPEWLQSHRESLPPEQFEKYQEQHSVMCKICEQFEAETPTDSETTQKARFEMVLDLMQQLQDLGHPPKELAGEMPPGLNFDLDALNLSGPPGASGEQCLIM [F70A],disrupting interaction

# Variants of: B1
# Conditions: with pex14_human PEX14, O75381
# Remark: another data set of the same source
row,Variant,effect of a mutation on the interaction
1,MAAAEEGCSVGAEADRELEELLESALDDFDKAKPSPAPPSTTTAPDASGPQKRSPGDTAKDALFASQAKFFQELFDSELASQATAEFEKAMKELAEEEPHLVEQFQKLSEAAGRVGSDMTSQQEFTSCLKETLSGLAKNATDLQNSSMSEEELTKAMEGLGMDEGDGEGNILPIMQSIMQNLLSKDVLYPSLKEITEKYPEWLQSHRESLPPEQFEKYQEQHSVMCKICEQFEAETPTDSETTQKARFEMVLDLMQQLQDLGHPPKELAGEMPPGLNFDLDALNLSGPPGASGEQCLIM [E68A],disrupting interaction

# Variants of: B1
# Conditions: with pex14_human PEX14, O75381
# Remark: another data set of the same source
row,Variant,effect of a mutation on the interaction
1,MAAAEEGCSVGAEADRELEELLESALDDFDKAKPSPAPPSTTTAPDASGPQKRSPGDTAKDALFASQEKFAQELFDSELASQATAEFEKAMKELAEEEPHLVEQFQKLSEAAGRVGSDMTSQQEFTSCLKETLSGLAKNATDLQNSSMSEEELTKAMEGLGMDEGDGEGNILPIMQSIMQNLLSKDVLYPSLKEITEKYPEWLQSHRESLPPEQFEKYQEQHSVMCKICEQFEAETPTDSETTQKARFEMVLDLMQQLQDLGHPPKELAGEMPPGLNFDLDALNLSGPPGASGEQCLIM [F71A],disrupting interaction

# Variants of: B1
# Conditions: with pex14_human PEX14, O75381
# Remark: another data set of the same source
row,Variant,effect of a mutation on the interaction
1,MAAAEEGCSVGAEADRELEELLESALDDFDKAKPSPAPPSTTTAPDASGPQKRSPGDTAKDALFASQEKFFQELADSELASQATAEFEKAMKELAEEEPHLVEQFQKLSEAAGRVGSDMTSQQEFTSCLKETLSGLAKNATDLQNSSMSEEELTKAMEGLGMDEGDGEGNILPIMQSIMQNLLSKDVLYPSLKEITEKYPEWLQSHRESLPPEQFEKYQEQHSVMCKICEQFEAETPTDSETTQKARFEMVLDLMQQLQDLGHPPKELAGEMPPGLNFDLDALNLSGPPGASGEQCLIM [F75A],disrupting interaction

# Variants of: B1
# Conditions: with pex14_human PEX14, O75381
# Remark: another data set of the same source
row,Variant,effect of a mutation on the interaction
1,MAAAEEGCSVGAEADRELEELLESALDDFDKAKPSPAPPSTTTAPDASGPQKRSPGDTAKDALFASQEKFFQEAFDSELASQATAEFEKAMKELAEEEPHLVEQFQKLSEAAGRVGSDMTSQQEFTSCLKETLSGLAKNATDLQNSSMSEEELTKAMEGLGMDEGDGEGNILPIMQSIMQNLLSKDVLYPSLKEITEKYPEWLQSHRESLPPEQFEKYQEQHSVMCKICEQFEAETPTDSETTQKARFEMVLDLMQQLQDLGHPPKELAGEMPPGLNFDLDALNLSGPPGASGEQCLIM [L74A],disrupting interaction

# Variants of: B2
# Conditions: with pex19_human PEX19, P40855
row,Variant,effect of a mutation on the interaction
1,MASSEQAEQPSQPSSTPGSENVLPREPLIATAVKFLQNSRVRQSPLATERAFLKKKGLTDEEIDMAFQQSGTAADEPSSLGPATQVVPVQPPHLISQPYSPAGSRWRDYGALAIIMAGIAFGFHQLYKKYLLPLILGGREDRKQLERMEAGLSELSGSVAQTVTQLQTTLASVQELLIQQQQKIQELAHELAAAKATTSTNWILESQNINELKSEINSLKGLLLNRRQFPPSPSAPKIPSWQIPVKSPSPSSPAAVNHHSSSDISPVSNESTSSSPGKEGHSPEGSTVTYHLLGPQEEGEGVVDVKGQVRMEVQGEEEKREDKEDEEDEEDDDVSHVDEEDCLGVQREDRRGGDGQINEQVEKLRRPEGASNESERD [R49E],decreasing interaction

# Variants of: B2
# Conditions: with pex19_human PEX19, P40855
# Remark: another data set of the same source
row,Variant,effect of a mutation on the interaction
1,MASSEQAEQPSQPSSTPGSENVLPREPLIATAVKFLQNSRVRQSPLATRRAWLKKKGLTDEEIDMAFQQSGTAADEPSSLGPATQVVPVQPPHLISQPYSPAGSRWRDYGALAIIMAGIAFGFHQLYKKYLLPLILGGREDRKQLERMEAGLSELSGSVAQTVTQLQTTLASVQELLIQQQQKIQELAHELAAAKATTSTNWILESQNINELKSEINSLKGLLLNRRQFPPSPSAPKIPSWQIPVKSPSPSSPAAVNHHSSSDISPVSNESTSSSPGKEGHSPEGSTVTYHLLGPQEEGEGVVDVKGQVRMEVQGEEEKREDKEDEEDEEDDDVSHVDEEDCLGVQREDRRGGDGQINEQVEKLRRPEGASNESERD [F52W],disrupting interaction

# Variants of: B2
# Conditions: with pex19_human PEX19, P40855
# Remark: another data set of the same source
row,Variant,effect of a mutation on the interaction
1,MASSEQAEQPSQPSSTPGSENVLPREPLIATAVKFLQNSRVRQSPLATRRAFLKKEGLTDEEIDMAFQQSGTAADEPSSLGPATQVVPVQPPHLISQPYSPAGSRWRDYGALAIIMAGIAFGFHQLYKKYLLPLILGGREDRKQLERMEAGLSELSGSVAQTVTQLQTTLASVQELLIQQQQKIQELAHELAAAKATTSTNWILESQNINELKSEINSLKGLLLNRRQFPPSPSAPKIPSWQIPVKSPSPSSPAAVNHHSSSDISPVSNESTSSSPGKEGHSPEGSTVTYHLLGPQEEGEGVVDVKGQVRMEVQGEEEKREDKEDEEDEEDDDVSHVDEEDCLGVQREDRRGGDGQINEQVEKLRRPEGASNESERD [K56E],decreasing interaction
